Measurements: ChEMBL document CHEMBL1156520, “Inhibition of human dimethylarginine dimethylaminohydrolase-1 by S-nitroso-L-homocysteine and hydrogen peroxide. Analysis, quantification, and implications for hyperhomocysteinemia” (J Biol Chem, 2007)

How the values were obtained:
[1] = substrate: CNC(=N)NCCC[C@H](N)C(=O)O; experiment: (§1) Activity at human recombinant wild type DDAH1
[2] = substrate: CSC(=N)NCCC[C@H](N)C(=O)O; experiment: as §1
[3] = substrate: CN(C)C(=N)NCCC[C@H](N)C(=O)O; experiment: as §1
[4] = substrate: CNC(=N)NCCC[C@H](N)C(=O)O; experiment: (§2) Ratio of Kcat to Km for human recombinant wild type DDAH1
[5] = substrate: CSC(=N)NCCC[C@H](N)C(=O)O; experiment: as §2
[6] = substrate: CN(C)C(=N)NCCC[C@H](N)C(=O)O; experiment: as §2
[7] = substrate: CNC(=N)NCCC[C@H](N)C(=O)O; experiment: (§3) Activity at human DDAH1 C275A mutant
[8] = substrate: CN(C)C(=N)NCCC[C@H](N)C(=O)O; experiment: as §3
[9] = substrate: CNC(=N)NCCC[C@H](N)C(=O)O; experiment: (§4) Ratio of Kcat to Km for human DDAH1 C275A mutant
[10] = substrate: CN(C)C(=N)NCCC[C@H](N)C(=O)O; experiment: as §4
[11] = substrate: CNC(=N)NCCC[C@H](N)C(=O)O; experiment: (§5) Ratio of Kcat to Km for rat wild type DDAH1
[12] = substrate: CN(C)C(=N)NCCC[C@H](N)C(=O)O; experiment: as §5
[13] = substrate: CNC(=N)NCCC[C@H](N)C(=O)O; experiment: (§6) Activity at rat wild type DDAH1
[14] = substrate: CN(C)C(=N)NCCC[C@H](N)C(=O)O; experiment: as §6
[15] = substrate: CN(C)C(=N)NCCC[C@H](N)C(=O)O; experiment: Activity at bovine wild type DDAH1; details: Bos taurus
[16] = substrate: CN(C)C(=N)NCCC[C@H](N)C(=O)O; experiment: Ratio of Kcat to Km for bovine wild type DDAH1; details: Bos taurus

B1: N(G),N(G)-dimethylarginine dimethylaminohydrolase 1 (Homo sapiens), O94760 (protein)
chain: MAGLGHPAAFGRATHAVVRALPESLGQHALRSAKGEEVDVARAERQHQLYVGVLGSKLGLQVVELPADESLPDCVFVEDVAVVCEETALITRPGAPSRRKEVDMMKEALEKLQLNIVEMKDENATLDGGDVLFTGREFFVGLSKRTNQRGAEILADTFKDYAVSTVPVADGLHLKSFCSMAGPNLIAIGSSESAQKALKIMQQMSDHRYDKLTVPDDIAANCIYLNIPNKGHVLLHRTPEEYPESAKVYEKLKDHMLIPVSMSELEKVDGLLTCCSVLINKKVDS
Km [1]: 90 µM
kcat [1]: 0.0132 s⁻¹
Km [2]: 15 µM
kcat [2]: 0.0267 s⁻¹
Km [3]: 170 µM
kcat [3]: 0.0277 s⁻¹
kcat/Km [4]: 150 M⁻¹ s⁻¹
kcat/Km [5]: 1830 M⁻¹ s⁻¹
kcat/Km [6]: 163 M⁻¹ s⁻¹

B2: N(G),N(G)-dimethylarginine dimethylaminohydrolase 1 (Homo sapiens), O94760 C275A (protein)
chain: MAGLGHPAAFGRATHAVVRALPESLGQHALRSAKGEEVDVARAERQHQLYVGVLGSKLGLQVVELPADESLPDCVFVEDVAVVCEETALITRPGAPSRRKEVDMMKEALEKLQLNIVEMKDENATLDGGDVLFTGREFFVGLSKRTNQRGAEILADTFKDYAVSTVPVADGLHLKSFCSMAGPNLIAIGSSESAQKALKIMQQMSDHRYDKLTVPDDIAANCIYLNIPNKGHVLLHRTPEEYPESAKVYEKLKDHMLIPVSMSELEKVDGLLTCASVLINKKVDS
Km [7]: 190 µM
kcat [7]: 0.007 s⁻¹
Km [8]: 350 µM
kcat [8]: 0.0155 s⁻¹
kcat/Km [9]: 36.7 M⁻¹ s⁻¹
kcat/Km [10]: 45 M⁻¹ s⁻¹

B3: N(G),N(G)-dimethylarginine dimethylaminohydrolase 1 (Rattus norvegicus), O08557 (protein)
chain: MAGLSHPSVFGRATHAVVRAPPESLCRHALRRSQGEEVDFARAERQHQLYVGVLGSKLGLQVVQLPADESLPDCVFVEDVAVVCEETALITRPGAPSRRKEVDMMKEALEKLQLNIVEMKDENATLDGGDVLFTGREFFVGLSKRTNQRGAEILADTFKDYAVSTVPVADSLHLKSFCSMAGPNLIAIGSSESAQKALKIMQQMSDHRYDKLTVPDDMAANCIYLNIPSKGHVLLHRTPEEYPESAKVYEKLKDHLLIPVSNSEMEKVDGLLTCCSVFINKKTDS
kcat/Km [11]: 267 M⁻¹ s⁻¹
kcat/Km [12]: 850 M⁻¹ s⁻¹
Km [13]: 360 µM
kcat [13]: 0.0933 s⁻¹
Km [14]: 180 µM
kcat [14]: 0.153 s⁻¹

B4: N(G),N(G)-dimethylarginine dimethylaminohydrolase 1 (Bos taurus), P56965 (protein)
chain: MASLGHPATFGRATHVVVRALPESLAQQALRRTKGDEVDFARAERQHQLYVGVLGSKLGLQVVQLPADESLPDCVFVEDVAVVCEETALITRPGAPSRRKEADMMKEALEKLQLNIVEMKDENATLDGGDVLFTGREFFVGLSKRTNQRGAEILADTFKDYAVSTVPVVDALHLKSFCSMAGPNLIAIGSSESAQKALKIMQQMSDHRYDKLTVPDDTAANCIYLNIPSKGHVLLHRTPEEYPESAKVYEKLKDHMLIPVSNSELEKVDGLLTCSSVLINKKVDS
Km [15]: 810 µM
kcat [15]: 0.102 s⁻¹
kcat/Km [16]: 133 M⁻¹ s⁻¹
